We go through one molecule from patent publication JPH07265077A (dated 1995).

The experiment deals with T1, Hemagglutinin (HA) of human influenza A virus A2/Aichi/2/68 (H3N2サブタイプ) (human influenza A virus A2/Aichi/2/68 …, UniProt P03437 17-566).
T1 construct: whole, on cells; also called A/Aichi/2/68; A2/Aichi/2/68

B1: モノクローナル抗体C179 (monoclonal antibody C179) (antibody, V domains shown)
VH: EVKLVESGGGLVQPGGSLRLSCGTSGFTLTDDYMTWVRQPPGKALEWLGFIRDRANGYTTEYSASVKGRFTISRDNSQSIVYLQMNTLRVEDSATYYCARPKGYFPYAMDYWGQGT
VL: DIQMTQSPASQSASLGESVTITCLASQTIGTWLAWYQQKPGKSPQLLIYAATSLADGVPSRFSGSGSGTKFSFKISSLQAEDFVSYYCQQLYSTPWTF
notes: also called antibody of Hybridoma C179 (FERM BP-4517)
On to B1, for which the binding result was “no binding”.
